The text below walks through data of patent US20060142171A1, “Novel alkaline protease” (priority 2003, published 2006).

For data set [1], the target named is T1, N-succinyl-Ala-Ala-Phe-7-amino-4-methyl coumarin.
T1 chain: AAF

For data set [2], the target named is T2, N-succinyl-Ala-Ala-Pro-Leu-p-nitroanilide.
T2 chain: AAPL

For data set [3], the target named is T3, N-succinyl-Ala-Ala-Pro-Phe-p-nitroanilide.
T3 chain: AAPF

Data set [4] addresses T4, N-succinyl-Leu-Leu-Val-Tyr-7-amino-4-methyl coumarin.
T4 chain: LLVY

Data set [5] addresses T5, N-succinyl-Leu-Tyr-7-amino-4-methyl coumarin.
T5 chain: LY

Data set [6] deals with T6, N-succinyl-Phe-Leu-Phe thiobenzyl ester.
T6 chain: FLF

Substrate in data set [7]: CCCC(=O)Oc1ccc([N+](=O)[O-])cc1
Description: Assay with synthetic peptide, pNA, AMC, NNap and ester substrates (kinetic parameters). It is filed as biochemical, Nesterenkonia sp. AL. The conditions noted are these: other: substrate marked b (footnote not given), 50 mM Tris-HCl buffer, pH 9.

Data set [8] can be described thus: Differential scanning calorimetry. It is filed as physicochemical. As for the experimental part:
The influence of different parameters including pH, calcium ions, EDTA, and detergent on thermal stability of the AL protease was investigated by differential scanning calorimetry (DSC). Comparative studies were also performed with Subtilisin Carlsberg. Thermal scans of AL protease (0.3 mg protein/ml) and subtilisin (2.5 mg protein/ml in the presence of 1 mM phenyl-methanesulfonyl fluoride (PMSF); Sigma) were performed by increasing temperature from 25° C. to 95° C. at a scan rate of 1° C. per min on a VP-DSC (MicroCal, Northampton, Mass.). The thermograms were corrected by subtracting the base line, obtained from a blank scan of the no-enzyme solution, and normalized for protein concentration. The unfolding transition of the AL protease was fitted to a two-state model. The Tm (temperature at which heat capacity change is a maximum), the calorimetric (or true) enthalpy ΔHcal (peak area), and van't Hoff (or apparent) enthalpy AHVH (calculated from the shape of thermogram) were calculated using the Origin software provided by MicroCal.
(DSC measures the heat that a sample takes up or gives off during a temperature scan.)

Data set [9] is described as follows: Circular dichroism spectroscopy. It is filed as physicochemical. As to the method: The conformational stability of the AL protease was examined by circular dichroism (CD) spectroscopy and compared with that of Subtilisin Carlsberg (bacterial protease, type VIII; Sigma Chemical Co., St. Louis, USA). The CD spectra of the proteins were obtained on a Jasco spectropolarimeter model J-720, at 25° C. in the far UV range from 195 to 250 nm at a scan rate of 10 nm/min using a sample cell path length of 0.1 cm. The ellipticity values (θ) for every nm wavelength increase were obtained in mdeg directly from the instrument and were recorded online in a computer. An average of 6 scans was calculated and the corresponding no-enzyme spectra were subtracted for each sample.
For orientation: CD spectra are sensitive to the conformation of chiral molecules.

Data set [10] is described as follows: Autolytic degradation by SDS-PAGE. It is filed as physicochemical. The conditions noted are these: incubation at 50° C. up to 24 h; not shown. As to the method: Autolytic degradation of the protease was investigated by SDS-PAGE. The AL protease and Subtilisin Carlsberg were individually incubated in 10 mM Tris-HCl buffer 8 for 24 h at 50° C. Electrophoresis of the enzyme samples taken at different time intervals was performed according to the method of Laemmli, on 12% polyacrylamide gel using a Mini Protean II equipment (Bio-Rad, Richmond, Calif.).

Where [11] appears, read: 0.1% (w/v) SDS vs untreated, pH 10.0.
The mark [12] stands for this setting: untreated, 10 mM glycine-NaOH buffer, pH 10.0 (subtilisin with 1 mM PMSF).
Setting [13] is: untreated, 10 mM glycine-NaOH buffer, pH 10.0 (subtilisin with 1 mM PMSF), listed as Subtilisin.

By Km is commonly meant the substrate concentration at which the rate is half of its maximum. The kcat is the number of substrate molecules converted per active site and unit of time at saturation. For orientation: kcat/Km means the turnover number divided by the Michaelis constant.

B1: AL protease (alkaline protease from Nesterenkonia sp. nov. strain AL, DSM 15380) (protein)
chain: QNPADSPHIGKVFFSTNQGDFVCSANIVASANQSTVATAGHCLHDGNGGQFARNFVFAPAYDYGESEHGVWAAEELVTSAEWANRGDFEHDYAFAVLETKGGTTVQQQVGTASPIAFNQPRGQYYSAYGYPAAAPFNGQELHSCHGTATNDPMGSSTQGIPCNMTGGSSGGPWFLGQGTGGAQNSVNSYGYTFLPDVMFGPYFGSGAQQNYNYAST
As for B1, the “specific activity toward synthetic substrate” value in [1], in data set [5] and in [6] was “only able of hydrolysing those substrates at a very low rate when high substrate concentration (10 mM) was used; between 0.002 to 0.008 U/mg” throughout. Further, the Km in [2] is 9300 µM; in data set [3] it was 2970 µM; in data set [4], 15 µM; in data set [7], 1050 µM. Moreover, the turnover number (kcat) was 6650 s⁻¹ in data set [2], 4390 s⁻¹ in data set [3], 51.7 s⁻¹ in data set [4] and 63.7 s⁻¹ in data set [7]. Besides, the kcat/Km in data set [2] was determined as 715000 M⁻¹ s⁻¹; in [3], 1.48e+06 M⁻¹ s⁻¹; in [4], 3.45e+06 M⁻¹ s⁻¹; in data set [7], 60800 M⁻¹ s⁻¹.

B2: Subtilisin Carlsberg: bacterial protease, type VIII; Sigma; one of the first commercial alkaline proteases (protein, UniProt P00780 106-379, looked up)
Subtilisin Carlsberg: AQTVPYGIPLIKADKVQAQGFKGANVKVAVLDTGIQASHPDLNVVGGASFVAGEAYNTDGNGHGTHVAGTVAALDNTTGVLGVAPSVSLYAVKVLNSSGSGSYSGIVSGIEWATTNGMDVINMSLGGASGSTAMKQAVDNAYAKGVVVVAAAGNSGSSGNTNTIGYPAKYDSVIAVGAVDSNSNRASFSSVGAELEVMAPGAGVYSTYPTNTYATLNGTSMASPHVAGAAALILSKHPNLSASQVRNRLSSTATYLGSSFYYGKGLINVEAAAQ
On to B2, for which the “Tm on addition of Ca^2+” value in data set [8] (1 mM PMSF present, pH 10.0) is listed as “remained unchanged”. Moreover, in [8] (10 mM EDTA, 1 mM PMSF present), the “Lowering of Tm” value worked out at 10 °C and the ΔHcal amounted to 152 kcal/mol. Further, in data set [8] (setting [11]), the “Decrease in Tm” value stood at 13 °C and the “Decrease in ΔHcal” value is recorded as 59 kcal/mol. Also, in data set [8] (0.2% SDS vs 0.1% SDS, pH 10.0), the “Further lowering in Tm” value was found to be 3 °C and the “Further lowering in ΔHcal” value is 41 kcal/mol. Moreover, in data set [8] (+0.1% SDS, pH 10.0), the Tm was 54.5 ± 0.02 °C and the ΔHcal came to 144 ± 0.5 kcal/mol. Further, in data set [8] (+0.2% SDS, pH 10.0), the Tm stood at 51.1 ± 0.01 °C and the ΔHcal is recorded as 103 ± 0.2 kcal/mol. Further, in data set [8] (setting [12]), the Tm came out at 67.3 °C and the ΔHcal is reported as 203 kcal/mol. In addition, in data set [8] (setting [13]), the Tm was determined as 67.3 ± 0.02 °C and the ΔHcal worked out at 203 ± 0.9 kcal/mol. The “Secondary structure in the presence of SDS” value in [9] (0.1-1% (w/v) SDS, data not shown) is listed as “complete loss of secondary structure”. The “Secondary structure after incubation” value in data set [9] (24 h at 50° C., 10 mM glycine-NaOH buffer, pH 10.0) was “substantial loss of structure”. Moreover, the “Degradation on gel electrophoresis” value in [10] is given as “considerable degradation”.
